We go through two molecules from publication PMC10447908 (2023).

As usually defined, the IC50 is the concentration that gives 50% inhibition. A high value points to lower potency.

What all share (experiment): FACS
For orientation: In flow cytometry, cells or beads pass a laser one at a time.

The target of assay [1] is SARS-CoV-2 Spike receptor binding domain, Omicron variant (SARS-CoV-2, UniProt P0DTC2, biotinylated in vitro when needed).
For assay [2], the target named is SARS-CoV-2 Spike receptor binding domain, Delta variant (SARS-CoV-2, UniProt P0DTC2, biotinylated in vitro when needed).
Assay [3] has as its target SARS-CoV-2 Spike receptor binding domain, Wuhan (ancestral) variant (SARS-CoV-2, UniProt P0DTC2, biotinylated in vitro when needed).

B1: Xiang-Liu 1 (designed binder)
chain: NDDELHMLMTDLVYEALHFAKDEEIKKRVFQLFELADKAYKNNDRQKLEKVVEELKELLERLLSEEDPCACESILKFEAKVEGLLQALTRKLEAVSGRLAVLENRIIDKEWILQKIYEIMRLLDELGHAEASMRVSDLIYEFMKKGDERLLEEAERLLEEVER
As for B1, the results for the IC50 in assay [1], in assay [2] and in assay [3] were 36.4 nM, 5.1 nM and 9.3 nM, respectively.

B2: Xiang-Liu 2 (designed binder)
chain: NDDELHMLMTDLVYEALHFAKDEEIKKRVFQLFELADKAYKNNDRQKLEKVVEELKELLERLLSEEDPCACESILKFEAKVEGLLQALTRKLEAVSGRLAVLENRIIQVQLVESGGGLVQAGGSLRLSCAASGRTFSNDALGWFRQAPRKEREFVAAINWNSGTYYADSVKGRFTISRDNAKNTVYLQMNSLKPEDTAVYSCAAASDYGLPREDFLYDYWGQGTQVTVSS
Take B2: the IC50 in assay [1] worked out at 5.2 nM; in assay [2], 6.8 nM; in assay [3], 12.6 nM.
